Experimental data from patent publication US20260109758A1 (BIOSION, published 2026).
Read-outs that look alike come from different tables or passages of the source. Values belong to the binder of their own block, whether it stands above or below them.

Tests used:
[1] = target: human IL4Rα on HEK293T-IL4R/STAT6/STAT6-Luc LB2 cells (human, UniProt P24394 26-825); assay: cell-based or functional assay
[2] = target: T1, human IL4Rα expressed on 293F-IL4Rα cell surface (human, UniProt P24394 26-825); assay: flow cytometry on 293F-IL4Rα cells, PE anti-human IgG Fc
T1 construct: whole, on cells; also called human IL4Rα-expressing cells; cell surface IL4R
Method: (§1) Cells were washed twice with FACS buffer, and added with 100 μL/well R-Phycoerythrin AffiniPure Goat Anti-Human IgG, Fey fragment specific (1:1000 dilution in FACS buffer, Jackson Immunoresearch, Cat #109-115-098). Following an incubation of 40 minutes at 4° C. in dark, cells were washed three times and resuspended in FACS buffer. Fluorescence was measured using a Becton Dickinson FACS Canto II-HTS equipment. Data was analyzed using Graphpad Prism and EC₅₀ values were reported.

[3] = target: T1, human IL4Rα expressed on 293F-IL4Rα …; assay: cell-based blocking FACS on 293F-IL4Rα cells; blocked ligand biotin human IL4
Method: (§2) Then, 1×10⁵ cells per well were incubated in 96 well-plates in 100 μL of serially diluted bispecific antibodies, the positive controls or negative control (starting at 100 nM with a 5-fold serial dilution) in FACS buffer for 40 minutes on ice. […] The plates were washed twice with FACS buffer, and then added and incubated for 40 minutes at 4° C. in dark with 100 μL/well R-Phycoerythrin Streptavidin (1:500 dilution in FACS buffer, Jackson Immunoresearch, Cat #016-110-084). Cells were washed twice and resuspended in FACS buffer. Fluorescence was measured using a Becton Dickinson FACS Canto II-HTS equipment. Data was analyzed using Graphpad Prism and IC₅₀ values were reported.

[4] = target: T2, recombinant human IL4Rα-his (human, UniProt P24394 26-231, limits assumed, biotin-labeled in the capture ELISA); assay: capture ELISA: antibody captured on anti-human IgG Fc F(ab')2, biotin human IL4Rα-his, SA-HRP
T2 construct: In-house made; not shown: His tag at the C-terminus
Method: (§3) Briefly, 96-well plates were coated with 2 μg/mL AffiniPure F(ab′)₂ Fragment Goat Anti-Human IgG, Fey fragment specific (Jackson Immuno Research, Cat #109-006-008) in PBS, 100 μL/well, overnight at 4° C. Plates were washed once with wash buffer (PBS+0.05% w/v Tween-20, PBST) and then blocked with 200 μL/well blocking buffer (5% w/v non-fatty milk in PBST) for 2 hours at 37° C. […] After a final wash, plates were incubated with 100 μL/well ELISA substrate TMB (Innoreagents, Cat #TMB-S-002). The reaction was stopped in 10 minutes at 25° C. with 50 μL/well 1M H₂SO₄, and the absorbance was read on a microplate reader using dual wavelength mode with 450 nm for TMB and 630 nm as the reference wavelength. Data was analyzed using Graphpad Prism and EC₅₀ values were reported.

[5] = target: T2, recombinant human IL4Rα-his; assay: competitive ELISA: coated human IL4Rα-his, antibody titrated; blocked ligand biotin human IL4
Method: (§4) Briefly, 100 μL human IL4Rα-his proteins (prepared in-house, IL4Rα of SEQ ID NO: 33 with C-terminal His tag) were coated on 96-well micro plates at 2 μg/mL in PBS overnight at 4° C. The next day, plates were washed with wash buffer (PBS+0.05% w/v Tween-20, PBST), and blocked with 5% w/v non-fatty milk in PBST for 2 hours at 37° C. Plates were then washed again using wash buffer. Serially diluted bispecific antibodies or the controls (starting at 100 nM with a 5-fold serial dilution) in 2.5% w/v non-fatty milk in PBST, 100 μL per well, were added to the IL4Rα bound plates, and incubated at 37° C. for 40 minutes. […] Plates were washed again using wash buffer. Thereafter, the plates were added with 100 μL/well of streptavidin conjugated HRP (1:10000 dilution in PBST buffer, Jackson Immunoresearch, Cat #016-030-084) and incubated for 40 minutes at 37° C. Plates were washed again using wash buffer. Finally, TMB was added and the reaction was stopped using 1M H₂SO₄, and the absorbance was read at 450 nm. Data was analyzed using Graphpad Prism and IC₅₀ values were reported.

[6] = target: T2, recombinant human IL4Rα-his; assay: as above; remark: listed apart in the source
Method: as §4

[7] = target: T1, human IL4Rα expressed on 293F-IL4Rα …; assay: flow cytometry on 293F-IL4Rα cells, PE anti-human IgG Fc; remark: listed apart in the source
Method: as §1

[8] = target: T1, human IL4Rα expressed on 293F-IL4Rα …; assay: cell-based blocking FACS on 293F-IL4Rα cells; blocked ligand biotin human IL4; remark: listed apart in the source
Method: as §2

[9] = target: T2, recombinant human IL4Rα-his; assay: capture ELISA: antibody captured on anti-human IgG Fc F(ab')2, biotin human IL4Rα-his, SA-HRP; remark: listed apart in the source
Method: as §3

[10] = target: T2, recombinant human IL4Rα-his; assay: SPR Biacore T200; antibody captured on anti-human IgG CM5 chip, IL4Rα-his as analyte; 1:1 Langmuir fit
Method: The goat anti-human IgG (GE healthcare, Cat #BR100839, Human Antibody Capture Kit) was covalently linked to a CM5 chip (carboxy methyl dextran coated chip) via primary amines, using a standard amine coupling kit provided by Biacore (GE healthcare, Pittsburgh, PA, USA). Un-reacted moieties on the biosensor surface were blocked with ethanolamine. Then, purified bispecific antibodies of the disclosure at the concentration of 66.67 nM and the controls at 10 μg/mL, were flowed onto the chip at a flow rate of 10 μL/min. Then, serially diluted recombinant human IL4Rα-his (in house made, IL4Rα of SEQ ID NO: 33 with His tag at C-terminus) in HBS EP buffer (provided by Biacore) was flowed onto the chip at a flow rate of 30 μL/min. The association and dissociation curves were fit to a 1:1 Langmuir binding model using BIAcore evaluation software.

[11] = target: T3, recombinant human TSLP-his (human, UniProt Q969D9 29-159, biotin-labeled in the ELISAs); assay: capture ELISA: antibody captured on anti-human IgG Fc F(ab')2, biotin human TSLP-his, SA-HRP
T3 construct: In-house made; not shown: His tag at the C-terminus
Method: Briefly, 96-well micro plates were coated with 100 μL 2 μg/mL AffiniPure F(ab′)₂ Fragment Goat Anti-Human IgG, Fey fragment specific (Jackson Immuno Research, Cat #109-006-008) in PBS and incubated overnight at 4° C. Plates were washed 4 times with wash buffer (PBS+0.05% Tween-20, PBST) and then blocked with 200 μL/well blocking buffer (5% w/v non-fatty milk in PBST) for 2 hours at 37° C. […] After the final wash, the plates were incubated with 100 μL/well TMB (Innoreagents). The reaction was stopped 15 minutes later at room temperature with 50 μL/well 1M H₂SO₄, and the absorbance of each well was read on a microplate reader using dual wavelength mode with 450 nm for TMB and 630 nm as the reference wavelength. The OD (450-630) values were plotted against antibody concentration. Data was analyzed using Graphpad Prism and EC₅₀ values were reported.

[12] = target: T3, recombinant human TSLP-his; assay: competitive ELISA: antibody pre-mixed with biotin human TSLP-his; blocked binding to coated TSLPR-Fc/IL7Ra-Fc
Method: Briefly, 100 μL human TSLPR-Fc proteins (SEQ ID NO: 34-SEQ ID NO: 38 fusion, prepared in-house) at 1 μg/mL in PBS, and 100 μL human IL7Ra-Fc proteins (SEQ ID NO: 35-SEQ ID NO: 38 fusion, prepared in-house) at 1 μg/mL in PBS were coated on 96-well micro plates overnight at 4° C. The next day, plates were washed with wash buffer (PBS+0.05% Tween-20, PBST), and blocked with 5% w/v non-fatty milk in PBST for 2 hours at 37° C. Plates were then washed again using wash buffer.
After incubation at 37° C. for 40 minutes, plates were washed 4 times using wash buffer. […] Plates were washed again using wash buffer. Finally, TMB was added and the reaction was stopped using 1M H₂SO₄. The absorbance was read on a microplate reader using dual wavelength mode with 450 nm for TMB and 630 nm as the reference wavelength, then the OD (450-630) values were plotted against the antibody concentration. Data was analyzed using Graphpad Prism and IC₅₀ values were reported.

[13] = target: T4, biotin-labeled human TSLP-Fc (human, biotin-labeled); assay: cell-based blocking FACS: antibody pre-mixed with biotin human TSLP-Fc; blocked binding to cell-surface TSLPR/IL7Ra on HEK293T-TSLPR/IL7R/STAT5-Luc 5C5 cells
T4 construct: also called TSLP-Fc protein; TSLP-Fc-biotin
Method: (§5) The cells were prepared following the instruction of lipofectamine 3000 transfection reagent (Thermo Fisher), by transfecting HEK293T cells (ATCC® CRL-11268) with pCMV-T-P plasmids inserted with TSLPR coding sequence between EcoRI and Xba1 sites and pCMV3-SP plasmids inserted with IL7Ra coding sequence between HindIII and Xba1 sites as well as pGL4.52 [luc2P/STAT5RE/Hygro](Promega).
(§6) The cells were harvested from cell culture flasks, washed twice and re-suspended in phosphate buffered saline (PBS) containing 2% v/v Fetal Bovine Serum (FACS buffer). […] Cells were washed twice with FACS buffer, and then added and incubated with 100 μL/well R-Phycoerythrin Streptavidin (1:500 dilution in FACS buffer, Jackson Immunoresearch, Cat #016-110-084) for 40 minutes at 4° C. in dark. Cells were washed twice and re-suspended in FACS buffer. Fluorescence was measured using a Becton Dickinson FACS Canto II-HTS equipment. Data was analyzed using Graphpad Prism and IC₅₀ values were reported.

[14] = target: T4, biotin-labeled human TSLP-Fc; assay: as above; remark: listed apart in the source
Method: as §5, §6

- Inhibition on IL4 induced STAT6 phosphorylation (IC50, nM) [1]: 0.015 nM
- Inhibition on IL13 induced STAT6 phosphorylation (IC50, nM) [1]: 0.033 nM
- EC50 [2]: ~0.161 nM
- IC50 [3]: 0.107 nM
- EC50 [4]: 0.0225 nM
- IC50 [5]: 0.266 nM
- IC50 [6]: 0.364 nM
B1: huC2C1A1A1-V15(IgG4) (antibody)
heavy: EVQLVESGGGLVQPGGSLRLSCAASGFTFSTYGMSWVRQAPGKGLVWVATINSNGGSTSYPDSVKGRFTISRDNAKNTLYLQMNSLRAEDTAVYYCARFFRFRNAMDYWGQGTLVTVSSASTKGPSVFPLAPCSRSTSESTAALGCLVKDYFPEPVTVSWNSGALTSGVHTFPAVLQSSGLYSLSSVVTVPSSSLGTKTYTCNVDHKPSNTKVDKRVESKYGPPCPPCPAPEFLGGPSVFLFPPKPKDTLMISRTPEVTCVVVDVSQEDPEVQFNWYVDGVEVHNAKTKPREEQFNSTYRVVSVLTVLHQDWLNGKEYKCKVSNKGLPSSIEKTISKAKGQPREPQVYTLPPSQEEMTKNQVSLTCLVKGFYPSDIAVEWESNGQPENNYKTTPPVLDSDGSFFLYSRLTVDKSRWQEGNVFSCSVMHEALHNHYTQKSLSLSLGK
light: DIQMTQSPSSLSASVGDRVTITCRTSENIYSYLAWYQQKPGKAPKFLVYNAKTLAEGVPSRFSGSGSGTDFTLTISSLQPEDFATYYCQHYYGPPTWTFGQGTKVEIKRTVAAPSVFIFPPSDEQLKSGTASVVCLLNNFYPREAKVQWKVDNALQSGNSQESVTEQDSKDSTYSLSSTLTLSKADYEKHKVYACEVTHQGLSSPVTKSFNRGEC
notes: also called anti-IL4R huC2C1A1A1-V15

- Inhibition on IL4 induced STAT6 phosphorylation (IC50, nM) [1]: 0.00473 nM
- Inhibition on IL13 induced STAT6 phosphorylation (IC50, nM) [1]: 0.0262 nM
- EC50 [7]: 0.128 nM
- IC50 [8]: 0.102 nM
- EC50 [9]: 0.015 nM
- Kd [10]: 0.196 nM
- koff [10]: 5.58e-05 s⁻¹
- kon [10]: 285000 M⁻¹ s⁻¹
- IC50 [5]: 0.22 nM
- IC50 [6]: 0.254 nM
B2: Dupilumab (antibody, V domains shown)
VH: EVQLVESGGGLEQPGGSLRLSCAGSGFTFRDYAMTWVRQAPGKGLEWVSSISGSGGNTYYADSVKGRFTISRDNSKNTLYLQMNSLRAEDTAVYYCAKDRLSITIRPRYYGLDVWGQGTTVTVSS
VL: DIVMTQSPLSLPVTPGEPASISCRSSQSLLYSIGYNYLDWYLQKSGQSPQLLIYLGSNRASGVPDRFSGSGSGTDFTLKISRVEAEDVGFYYCMQALQTPYTFGQGTKLEIKR

- EC50 [11]: 0.0512 nM
- IC50 [12]: 0.0716 nM
- IC50 [13]: 1.04 nM
- IC50 [14]: 1 nM
B3: hu1C5F12E9-V8(IgG4) (antibody)
heavy: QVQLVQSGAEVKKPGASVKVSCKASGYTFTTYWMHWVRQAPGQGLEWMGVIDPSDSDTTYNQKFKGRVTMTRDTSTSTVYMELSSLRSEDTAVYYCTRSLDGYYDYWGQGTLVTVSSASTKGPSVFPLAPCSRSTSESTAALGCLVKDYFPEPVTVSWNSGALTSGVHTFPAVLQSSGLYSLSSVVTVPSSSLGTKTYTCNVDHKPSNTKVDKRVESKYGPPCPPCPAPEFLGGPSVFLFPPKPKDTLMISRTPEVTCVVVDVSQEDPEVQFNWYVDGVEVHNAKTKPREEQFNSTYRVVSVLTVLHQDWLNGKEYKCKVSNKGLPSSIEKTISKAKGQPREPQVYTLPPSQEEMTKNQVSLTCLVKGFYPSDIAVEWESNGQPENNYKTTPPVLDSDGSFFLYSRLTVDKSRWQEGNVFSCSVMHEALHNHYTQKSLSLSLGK
light: DIQMTQSPSSLSASVGDRVTITCRPTENIYSYLAWYQQKPGKAPKLLIYFARTLAEGVPSRFSGSGSGTDFTLTISSLQPEDFATYYCQHHYGTPWTFGGGTKVEIKRTVAAPSVFIFPPSDEQLKSGTASVVCLLNNFYPREAKVQWKVDNALQSGNSQESVTEQDSKDSTYSLSSTLTLSKADYEKHKVYACEVTHQGLSSPVTKSFNRGEC
notes: also called parental anti-TSLP antibody hu1C5F12E9-V8(IgG4)
